In patent publication US10919943B2, “Mutant proteins enabling agrochemical control of plant gene expression” (The Regents of the University of California, priority 2016, dated 2021):

T1: PYR1 (Arabidopsis thaliana, UniProt O49686)
T1 construct: expressed in transfected cells; host or cells: S. cerevisiae strain Y190
T1 sequence (O49686 1-191): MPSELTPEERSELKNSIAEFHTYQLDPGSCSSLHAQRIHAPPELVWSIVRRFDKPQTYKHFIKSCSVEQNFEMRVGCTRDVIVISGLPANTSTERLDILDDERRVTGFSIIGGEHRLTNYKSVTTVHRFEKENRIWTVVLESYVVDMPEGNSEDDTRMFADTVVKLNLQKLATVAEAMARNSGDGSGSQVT


molecular target: T1, PYR1; experiment: Yeast two hybrid of pACT-HAB1 site saturation mutants with pBD-PYR1 on 10 μM ABA, β-galactosidase staining; type: cell-based; design: key: x: Mutations in HAB1 that disrupt HAB1 interaction with PYR1; conditions: S. cerevisiae Y190, 10 μM ABA; dead = lack of detectable staining in comparison to wild type control
Source text: To systematically define mutations in HAB1 that disrupt its binding to PYR1, we used site saturation mutagenesis to create a collection all possible single amino acid substitutions in 20 residues lining the PYR1 binding interface, and then assayed the ability of each mutant to bind PYR1 using the yeast two hybrid assay described above. We targeted the following residues for mutagenesis: R199, 5200, E201, E203, H245, G246, G247, S322, E323, T324, K381, I383, Q384, W385, Q386, R389, F391, G392, V393, and Y404. To create the collection of mutations, mutagenic “NNK” site directed mutagenesis primers were synthesized for each of the 20 positions and the primers used in QuickChange site-directed mutagenesis reactions using a previously described pACT-HAB1 template (Park et al., 2009). We note that this clone uses a HAB1 cDNA lacking its three N-terminal amino acids. The reaction products were digested with DpnI, and transformed into competent Escherichia coli DH5α cells and plasmid DNA for 96 colonies per site was isolated using Bioneer AccuPrep® Plasmid Mini Extraction Kit (Alameda, Calif.) and sequenced to identify mutants. This process identified most of the 19 desired mutations per target site; the remaining mutations were constructed directly using specific mutagenic primers. To interrogate the effects of the mutations on PYR1-HAB1 interactions, the mutant clones were individually transformed into S. cerevisiae strain Y190 containing pBD-PYR1 (Park et al., 2009). Yeast transformants were selected for the presence of plasmids on selective SD (-Leu,-Trp) plates and then spotted onto SD (-Leu,-Trp) agar plates supplemented with 10 μM ABA. After incubating the test plates at 30° C. for two days, the colonies were lysed with chloroform and stained to reveal […] expression levels. “Dead” mutants were defined by lack of detectable staining in comparison to a wild type pBD-PYR1/pACT-HAB1 control. This screening effort defined 163 mutations that disrupt the ABA-induced PYR1/HAB1 interaction (Table 2).

Molecule	Mutations in HAB1 that disrupt HAB1 interaction with PYR1
E323L: HAB1 mutant (protein, UniProt Q9CAJ0 23-511, looked up, variant E323L) Protein phosphatase 2C 16: SPVEITQLKNVTDAADLLSDSENQSFCNGGTECTMEDVSELEEVGEQDLLKTLSDTRSGSSNVFDEDDVLSVVEDNSAVISEGLLVVDAGSELSLSNTAMEIDNGRVLATAIIVGESSIEQVPTAEVLIAGVNQDTNTSEVVIRLPDENSNHLVKGRSVYELDCIPLWGTVSIQGNRSEMEDAFAVSPHFLKLPIKMLMGDHEGMSPSLTHLTGHFFGVYDGHGGHKVADYCRDRLHFALAEEIERIKDELCKRNTGEGRQVQWDKVFTSCFLTVDGEIEGKIGRAVVGSSDKVLEAVASLTVGSTAVVALVCSSHIVVSNCGDSRAVLFRGKEAMPLSVDHKPDREDEYARIENAGGKVIQWQGARVFGVLAMSRSIGDRYLKPYVIPEPEVTFMPRSREDECLILASDGLWDVMNNQEVCEIARRRILMWHKKNGAPPLAERGKGIDPACQAAADYLSMLALQKGSKDNISIIVIDLKAQRKFKTRT	x
I383N: HAB1 mutant (protein, UniProt Q9CAJ0 23-511, looked up, variant I383N) Protein phosphatase 2C 16: SPVEITQLKNVTDAADLLSDSENQSFCNGGTECTMEDVSELEEVGEQDLLKTLSDTRSGSSNVFDEDDVLSVVEDNSAVISEGLLVVDAGSELSLSNTAMEIDNGRVLATAIIVGESSIEQVPTAEVLIAGVNQDTNTSEVVIRLPDENSNHLVKGRSVYELDCIPLWGTVSIQGNRSEMEDAFAVSPHFLKLPIKMLMGDHEGMSPSLTHLTGHFFGVYDGHGGHKVADYCRDRLHFALAEEIERIKDELCKRNTGEGRQVQWDKVFTSCFLTVDGEIEGKIGRAVVGSSDKVLEAVASETVGSTAVVALVCSSHIVVSNCGDSRAVLFRGKEAMPLSVDHKPDREDEYARIENAGGKVNQWQGARVFGVLAMSRSIGDRYLKPYVIPEPEVTFMPRSREDECLILASDGLWDVMNNQEVCEIARRRILMWHKKNGAPPLAERGKGIDPACQAAADYLSMLALQKGSKDNISIIVIDLKAQRKFKTRT	x
I383R: HAB1 mutant (protein, UniProt Q9CAJ0 23-511, looked up, variant I383R) Protein phosphatase 2C 16: SPVEITQLKNVTDAADLLSDSENQSFCNGGTECTMEDVSELEEVGEQDLLKTLSDTRSGSSNVFDEDDVLSVVEDNSAVISEGLLVVDAGSELSLSNTAMEIDNGRVLATAIIVGESSIEQVPTAEVLIAGVNQDTNTSEVVIRLPDENSNHLVKGRSVYELDCIPLWGTVSIQGNRSEMEDAFAVSPHFLKLPIKMLMGDHEGMSPSLTHLTGHFFGVYDGHGGHKVADYCRDRLHFALAEEIERIKDELCKRNTGEGRQVQWDKVFTSCFLTVDGEIEGKIGRAVVGSSDKVLEAVASETVGSTAVVALVCSSHIVVSNCGDSRAVLFRGKEAMPLSVDHKPDREDEYARIENAGGKVRQWQGARVFGVLAMSRSIGDRYLKPYVIPEPEVTFMPRSREDECLILASDGLWDVMNNQEVCEIARRRILMWHKKNGAPPLAERGKGIDPACQAAADYLSMLALQKGSKDNISIIVIDLKAQRKFKTRT	x
I383T: HAB1 mutant (protein, UniProt Q9CAJ0 23-511, looked up, variant I383T) Protein phosphatase 2C 16: SPVEITQLKNVTDAADLLSDSENQSFCNGGTECTMEDVSELEEVGEQDLLKTLSDTRSGSSNVFDEDDVLSVVEDNSAVISEGLLVVDAGSELSLSNTAMEIDNGRVLATAIIVGESSIEQVPTAEVLIAGVNQDTNTSEVVIRLPDENSNHLVKGRSVYELDCIPLWGTVSIQGNRSEMEDAFAVSPHFLKLPIKMLMGDHEGMSPSLTHLTGHFFGVYDGHGGHKVADYCRDRLHFALAEEIERIKDELCKRNTGEGRQVQWDKVFTSCFLTVDGEIEGKIGRAVVGSSDKVLEAVASETVGSTAVVALVCSSHIVVSNCGDSRAVLFRGKEAMPLSVDHKPDREDEYARIENAGGKVTQWQGARVFGVLAMSRSIGDRYLKPYVIPEPEVTFMPRSREDECLILASDGLWDVMNNQEVCEIARRRILMWHKKNGAPPLAERGKGIDPACQAAADYLSMLALQKGSKDNISIIVIDLKAQRKFKTRT	x
I383P: HAB1 mutant (protein, UniProt Q9CAJ0 23-511, looked up, variant I383P) Protein phosphatase 2C 16: SPVEITQLKNVTDAADLLSDSENQSFCNGGTECTMEDVSELEEVGEQDLLKTLSDTRSGSSNVFDEDDVLSVVEDNSAVISEGLLVVDAGSELSLSNTAMEIDNGRVLATAIIVGESSIEQVPTAEVLIAGVNQDTNTSEVVIRLPDENSNHLVKGRSVYELDCIPLWGTVSIQGNRSEMEDAFAVSPHFLKLPIKMLMGDHEGMSPSLTHLTGHFFGVYDGHGGHKVADYCRDRLHFALAEEIERIKDELCKRNTGEGRQVQWDKVFTSCFLTVDGEIEGKIGRAVVGSSDKVLEAVASETVGSTAVVALVCSSHIVVSNCGDSRAVLFRGKEAMPLSVDHKPDREDEYARIENAGGKVPQWQGARVFGVLAMSRSIGDRYLKPYVIPEPEVTFMPRSREDECLILASDGLWDVMNNQEVCEIARRRILMWHKKNGAPPLAERGKGIDPACQAAADYLSMLALQKGSKDNISIIVIDLKAQRKFKTRT	x

More lines, now with the values ahead:

Mutations in HAB1 that disrupt HAB1 interaction with PYR1	Molecule
x	I383S: HAB1 mutant (protein, UniProt Q9CAJ0 23-511, looked up, variant I383S) Protein phosphatase 2C 16: SPVEITQLKNVTDAADLLSDSENQSFCNGGTECTMEDVSELEEVGEQDLLKTLSDTRSGSSNVFDEDDVLSVVEDNSAVISEGLLVVDAGSELSLSNTAMEIDNGRVLATAIIVGESSIEQVPTAEVLIAGVNQDTNTSEVVIRLPDENSNHLVKGRSVYELDCIPLWGTVSIQGNRSEMEDAFAVSPHFLKLPIKMLMGDHEGMSPSLTHLTGHFFGVYDGHGGHKVADYCRDRLHFALAEEIERIKDELCKRNTGEGRQVQWDKVFTSCFLTVDGEIEGKIGRAVVGSSDKVLEAVASETVGSTAVVALVCSSHIVVSNCGDSRAVLFRGKEAMPLSVDHKPDREDEYARIENAGGKVSQWQGARVFGVLAMSRSIGDRYLKPYVIPEPEVTFMPRSREDECLILASDGLWDVMNNQEVCEIARRRILMWHKKNGAPPLAERGKGIDPACQAAADYLSMLALQKGSKDNISIIVIDLKAQRKFKTRT
x	I383W: HAB1 mutant (protein, UniProt Q9CAJ0 23-511, looked up, variant I383W) Protein phosphatase 2C 16: SPVEITQLKNVTDAADLLSDSENQSFCNGGTECTMEDVSELEEVGEQDLLKTLSDTRSGSSNVFDEDDVLSVVEDNSAVISEGLLVVDAGSELSLSNTAMEIDNGRVLATAIIVGESSIEQVPTAEVLIAGVNQDTNTSEVVIRLPDENSNHLVKGRSVYELDCIPLWGTVSIQGNRSEMEDAFAVSPHFLKLPIKMLMGDHEGMSPSLTHLTGHFFGVYDGHGGHKVADYCRDRLHFALAEEIERIKDELCKRNTGEGRQVQWDKVFTSCFLTVDGEIEGKIGRAVVGSSDKVLEAVASETVGSTAVVALVCSSHIVVSNCGDSRAVLFRGKEAMPLSVDHKPDREDEYARIENAGGKVWQWQGARVFGVLAMSRSIGDRYLKPYVIPEPEVTFMPRSREDECLILASDGLWDVMNNQEVCEIARRRILMWHKKNGAPPLAERGKGIDPACQAAADYLSMLALQKGSKDNISIIVIDLKAQRKFKTRT
x	K381W: HAB1 mutant (protein, UniProt Q9CAJ0 23-511, looked up, variant K381W) Protein phosphatase 2C 16: SPVEITQLKNVTDAADLLSDSENQSFCNGGTECTMEDVSELEEVGEQDLLKTLSDTRSGSSNVFDEDDVLSVVEDNSAVISEGLLVVDAGSELSLSNTAMEIDNGRVLATAIIVGESSIEQVPTAEVLIAGVNQDTNTSEVVIRLPDENSNHLVKGRSVYELDCIPLWGTVSIQGNRSEMEDAFAVSPHFLKLPIKMLMGDHEGMSPSLTHLTGHFFGVYDGHGGHKVADYCRDRLHFALAEEIERIKDELCKRNTGEGRQVQWDKVFTSCFLTVDGEIEGKIGRAVVGSSDKVLEAVASETVGSTAVVALVCSSHIVVSNCGDSRAVLFRGKEAMPLSVDHKPDREDEYARIENAGGWVIQWQGARVFGVLAMSRSIGDRYLKPYVIPEPEVTFMPRSREDECLILASDGLWDVMNNQEVCEIARRRILMWHKKNGAPPLAERGKGIDPACQAAADYLSMLALQKGSKDNISIIVIDLKAQRKFKTRT
x	I383Q: HAB1 mutant (protein, UniProt Q9CAJ0 23-511, looked up, variant I383Q) Protein phosphatase 2C 16: SPVEITQLKNVTDAADLLSDSENQSFCNGGTECTMEDVSELEEVGEQDLLKTLSDTRSGSSNVFDEDDVLSVVEDNSAVISEGLLVVDAGSELSLSNTAMEIDNGRVLATAIIVGESSIEQVPTAEVLIAGVNQDTNTSEVVIRLPDENSNHLVKGRSVYELDCIPLWGTVSIQGNRSEMEDAFAVSPHFLKLPIKMLMGDHEGMSPSLTHLTGHFFGVYDGHGGHKVADYCRDRLHFALAEEIERIKDELCKRNTGEGRQVQWDKVFTSCFLTVDGEIEGKIGRAVVGSSDKVLEAVASETVGSTAVVALVCSSHIVVSNCGDSRAVLFRGKEAMPLSVDHKPDREDEYARIENAGGKVQQWQGARVFGVLAMSRSIGDRYLKPYVIPEPEVTFMPRSREDECLILASDGLWDVMNNQEVCEIARRRILMWHKKNGAPPLAERGKGIDPACQAAADYLSMLALQKGSKDNISIIVIDLKAQRKFKTRT
